Measurements: patent US20180155451A1 (published 2018)

T1: FcγRIIb extracellular domain with C-terminal His tag (human, UniProt P31994 43-217)
T1 construct: extracellular domain; also called FcgRIIb; 2b; not shown: His tag at the C terminus
T1 sequence (looked up): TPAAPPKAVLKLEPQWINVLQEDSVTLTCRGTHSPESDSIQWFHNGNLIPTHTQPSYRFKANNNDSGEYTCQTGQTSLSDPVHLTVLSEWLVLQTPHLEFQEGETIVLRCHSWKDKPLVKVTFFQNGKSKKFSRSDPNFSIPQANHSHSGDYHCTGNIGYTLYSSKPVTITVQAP


Legend:
[1] = biological target: T2, FcγRIIIa extracellular domain with C-terminal His tag (human, UniProt P08637 17-208); test: SPR (Biacore); ratio of He/Con_3a (FcγRIIIa) to He/Con_2b (FcγRIIb)
T2 construct: extracellular domain; also called FcgRIIIa; 3a; not shown: His tag at the C terminus
T2 sequence (P08637 17-208): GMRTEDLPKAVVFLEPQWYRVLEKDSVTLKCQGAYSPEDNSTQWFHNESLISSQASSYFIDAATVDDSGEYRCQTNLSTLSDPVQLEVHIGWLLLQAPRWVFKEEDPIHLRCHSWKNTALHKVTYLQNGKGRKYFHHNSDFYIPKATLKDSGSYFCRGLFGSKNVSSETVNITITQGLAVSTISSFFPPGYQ
Description: (§1) The heterodimerized antibodies He Abs in which one of the H chains was introduced with an alteration were assayed for their binding activities to each activating FcγR and inhibitory FcγR according to the method described in Example 4. […] The activating FcγRs in FIGS. 26, 27, 28, and 29 are FcγRIa, FcγRIIa (R), FcγRIIa (H), and FcγRIIIa, respectively.
(§2) Analysis of interaction between objective antibody and the FcγR was carried out using Biacore T100 (GE Healthcare). HBS-EP+ (GE Healthcare) was used as the running buffer, and the measurement temperature was set to 25° C. Chips produced by immobilizing the antigen peptide by the amine coupling method to a Series S Sencor Chip CM5 (GE Healthcare), or alternatively, chips produced by allowing preliminarily biotinylated antigen peptides to interact with and immobilize onto a Series S Sensor Chip SA (certified) (GE Healthcare) were used. Antibodies of interest were captured onto an antigen peptide-immobilized chip, and allowed to interact to each FcγR diluted with running buffer. To regenerate and repeatedly use the chip, the antibodies captured on the chip were washed off by reacting 10 mM glycine-HCl, pH 1.5.

[2] = biological target: T2, FcγRIIIa extracellular domain with …; test: SPR (Biacore), antibody captured, FcγR as analyte; He Ab binding / GpH7-A5/GpH7-B3/GpL16-k0 binding x 100
Description: as §1, §2

[3] = biological target: T1, FcγRIIb extracellular domain with …; test: as above
Description: as §1, §2

Row | Binder | He_3a/2b (IIIa/IIb) [1] | He/Con_3a (IIIa binding) [2] | He/Con_2b (IIb binding) [3]
1 | GpH7-A5/GpH7-B3 variant P329_02A/GpL16-k0 (antibody, human IgG1, kappa, position is EU numbering; also called He Ab) heavy 1: not shown heavy 2: not shown light: DIVMTQSPLSLPVTPGEPASISCQASESLVHSNRNTYLHWYLQKPGQSPQLLIYKVSNRFSGVPDRFSGSGSGTDFTLKISRVEAEDVGVYYCSQNTHVPPTFGQGTKVEIERTVAAPSVFIFPPSDEQLKSGTASVVCLLNNFYPREAKVQWKVDNALQSGNSQESVTEQDSKDSTYSLSSTLTLSKADYEKHKVYACEVTHQGLSSPVTKSFNRGEC | 1.39 ratio | 56.4 relative, control = 100 | 40.5 relative, control = 100
2 | GpH7-A5/GpH7-B3 variant S298_14T/GpL16-k0 (antibody, human IgG1, kappa, position is EU numbering; also called He Ab) heavy 1: not shown heavy 2: not shown light: DIVMTQSPLSLPVTPGEPASISCQASESLVHSNRNTYLHWYLQKPGQSPQLLIYKVSNRFSGVPDRFSGSGSGTDFTLKISRVEAEDVGVYYCSQNTHVPPTFGQGTKVEIERTVAAPSVFIFPPSDEQLKSGTASVVCLLNNFYPREAKVQWKVDNALQSGNSQESVTEQDSKDSTYSLSSTLTLSKADYEKHKVYACEVTHQGLSSPVTKSFNRGEC | 1.45 ratio | 113 relative, control = 100 | 77.9 relative, control = 100
3 | GpH7-A5/GpH7-B3 variant S298_15Y/GpL16-k0 (antibody, human IgG1, kappa, position is EU numbering; also called He Ab) heavy 1: not shown heavy 2: not shown light: DIVMTQSPLSLPVTPGEPASISCQASESLVHSNRNTYLHWYLQKPGQSPQLLIYKVSNRFSGVPDRFSGSGSGTDFTLKISRVEAEDVGVYYCSQNTHVPPTFGQGTKVEIERTVAAPSVFIFPPSDEQLKSGTASVVCLLNNFYPREAKVQWKVDNALQSGNSQESVTEQDSKDSTYSLSSTLTLSKADYEKHKVYACEVTHQGLSSPVTKSFNRGEC | 1.39 ratio | 85.6 relative, control = 100 | 61.4 relative, control = 100
4 | GpH7-A5/GpH7-B3 variant P329_11K/GpL16-k0 (antibody, human IgG1, kappa, position is EU numbering; also called He Ab) heavy 1: not shown heavy 2: not shown light: DIVMTQSPLSLPVTPGEPASISCQASESLVHSNRNTYLHWYLQKPGQSPQLLIYKVSNRFSGVPDRFSGSGSGTDFTLKISRVEAEDVGVYYCSQNTHVPPTFGQGTKVEIERTVAAPSVFIFPPSDEQLKSGTASVVCLLNNFYPREAKVQWKVDNALQSGNSQESVTEQDSKDSTYSLSSTLTLSKADYEKHKVYACEVTHQGLSSPVTKSFNRGEC | 1.76 ratio | 29.6 relative, control = 100 | 16.9 relative, control = 100
5 | GpH7-A5/GpH7-B3 variant Q295_13S/GpL16-k0 (antibody, human IgG1, kappa, position is EU numbering; also called He Ab) heavy 1: not shown heavy 2: not shown light: DIVMTQSPLSLPVTPGEPASISCQASESLVHSNRNTYLHWYLQKPGQSPQLLIYKVSNRFSGVPDRFSGSGSGTDFTLKISRVEAEDVGVYYCSQNTHVPPTFGQGTKVEIERTVAAPSVFIFPPSDEQLKSGTASVVCLLNNFYPREAKVQWKVDNALQSGNSQESVTEQDSKDSTYSLSSTLTLSKADYEKHKVYACEVTHQGLSSPVTKSFNRGEC | 1.51 ratio | 86.1 relative, control = 100 | 56.9 relative, control = 100
6 | GpH7-A5/GpH7-B3 variant S298_16H/GpL16-k0 (antibody, human IgG1, kappa, position is EU numbering; also called He Ab) heavy 1: not shown heavy 2: not shown light: DIVMTQSPLSLPVTPGEPASISCQASESLVHSNRNTYLHWYLQKPGQSPQLLIYKVSNRFSGVPDRFSGSGSGTDFTLKISRVEAEDVGVYYCSQNTHVPPTFGQGTKVEIERTVAAPSVFIFPPSDEQLKSGTASVVCLLNNFYPREAKVQWKVDNALQSGNSQESVTEQDSKDSTYSLSSTLTLSKADYEKHKVYACEVTHQGLSSPVTKSFNRGEC | 1.2 ratio | 76.5 relative, control = 100 | 63.5 relative, control = 100
7 | GpH7-A5/GpH7-B3 variant S298_07I/GpL16-k0 (antibody, human IgG1, kappa, position is EU numbering; also called He Ab) heavy 1: not shown heavy 2: not shown light: DIVMTQSPLSLPVTPGEPASISCQASESLVHSNRNTYLHWYLQKPGQSPQLLIYKVSNRFSGVPDRFSGSGSGTDFTLKISRVEAEDVGVYYCSQNTHVPPTFGQGTKVEIERTVAAPSVFIFPPSDEQLKSGTASVVCLLNNFYPREAKVQWKVDNALQSGNSQESVTEQDSKDSTYSLSSTLTLSKADYEKHKVYACEVTHQGLSSPVTKSFNRGEC | 1.37 ratio | 96.4 relative, control = 100 | 70.6 relative, control = 100
8 | GpH7-A5/GpH7-B3 variant Q295_16H/GpL16-k0 (antibody, human IgG1, kappa, position is EU numbering; also called He Ab) heavy 1: not shown heavy 2: not shown light: DIVMTQSPLSLPVTPGEPASISCQASESLVHSNRNTYLHWYLQKPGQSPQLLIYKVSNRFSGVPDRFSGSGSGTDFTLKISRVEAEDVGVYYCSQNTHVPPTFGQGTKVEIERTVAAPSVFIFPPSDEQLKSGTASVVCLLNNFYPREAKVQWKVDNALQSGNSQESVTEQDSKDSTYSLSSTLTLSKADYEKHKVYACEVTHQGLSSPVTKSFNRGEC | 1.22 ratio | 76.4 relative, control = 100 | 62.7 relative, control = 100
9 | GpH7-A5/GpH7-B3 variant S298_03V/GpL16-k0 (antibody, human IgG1, kappa, position is EU numbering; also called He Ab) heavy 1: not shown heavy 2: not shown light: DIVMTQSPLSLPVTPGEPASISCQASESLVHSNRNTYLHWYLQKPGQSPQLLIYKVSNRFSGVPDRFSGSGSGTDFTLKISRVEAEDVGVYYCSQNTHVPPTFGQGTKVEIERTVAAPSVFIFPPSDEQLKSGTASVVCLLNNFYPREAKVQWKVDNALQSGNSQESVTEQDSKDSTYSLSSTLTLSKADYEKHKVYACEVTHQGLSSPVTKSFNRGEC | 1.69 ratio | 109 relative, control = 100 | 64.5 relative, control = 100
10 | GpH7-A5/GpH7-B3 variant Q295_14T/GpL16-k0 (antibody, human IgG1, kappa, position is EU numbering; also called He Ab) heavy 1: not shown heavy 2: not shown light: DIVMTQSPLSLPVTPGEPASISCQASESLVHSNRNTYLHWYLQKPGQSPQLLIYKVSNRFSGVPDRFSGSGSGTDFTLKISRVEAEDVGVYYCSQNTHVPPTFGQGTKVEIERTVAAPSVFIFPPSDEQLKSGTASVVCLLNNFYPREAKVQWKVDNALQSGNSQESVTEQDSKDSTYSLSSTLTLSKADYEKHKVYACEVTHQGLSSPVTKSFNRGEC | 1.72 ratio | 115 relative, control = 100 | 66.8 relative, control = 100
11 | GpH7-A5/GpH7-B3 variant S298_04F/GpL16-k0 (antibody, human IgG1, kappa, position is EU numbering; also called He Ab) heavy 1: not shown heavy 2: not shown light: DIVMTQSPLSLPVTPGEPASISCQASESLVHSNRNTYLHWYLQKPGQSPQLLIYKVSNRFSGVPDRFSGSGSGTDFTLKISRVEAEDVGVYYCSQNTHVPPTFGQGTKVEIERTVAAPSVFIFPPSDEQLKSGTASVVCLLNNFYPREAKVQWKVDNALQSGNSQESVTEQDSKDSTYSLSSTLTLSKADYEKHKVYACEVTHQGLSSPVTKSFNRGEC | 1.26 ratio | 82.5 relative, control = 100 | 65.4 relative, control = 100
12 | GpH7-A5/GpH7-B3 variant S324_01G/GpL16-k0 (antibody, human IgG1, kappa, position is EU numbering; also called He Ab) heavy 1: not shown heavy 2: not shown light: DIVMTQSPLSLPVTPGEPASISCQASESLVHSNRNTYLHWYLQKPGQSPQLLIYKVSNRFSGVPDRFSGSGSGTDFTLKISRVEAEDVGVYYCSQNTHVPPTFGQGTKVEIERTVAAPSVFIFPPSDEQLKSGTASVVCLLNNFYPREAKVQWKVDNALQSGNSQESVTEQDSKDSTYSLSSTLTLSKADYEKHKVYACEVTHQGLSSPVTKSFNRGEC | 1.29 ratio | 105 relative, control = 100 | 81.1 relative, control = 100
13 | GpH7-A5/GpH7-B3 variant Q295_18N/GpL16-k0 (antibody, human IgG1, kappa, position is EU numbering; also called He Ab) heavy 1: not shown heavy 2: not shown light: DIVMTQSPLSLPVTPGEPASISCQASESLVHSNRNTYLHWYLQKPGQSPQLLIYKVSNRFSGVPDRFSGSGSGTDFTLKISRVEAEDVGVYYCSQNTHVPPTFGQGTKVEIERTVAAPSVFIFPPSDEQLKSGTASVVCLLNNFYPREAKVQWKVDNALQSGNSQESVTEQDSKDSTYSLSSTLTLSKADYEKHKVYACEVTHQGLSSPVTKSFNRGEC | 1.26 ratio | 81.6 relative, control = 100 | 64.9 relative, control = 100
14 | GpH7-A5/GpH7-B3 variant S298_09D/GpL16-k0 (antibody, human IgG1, kappa, position is EU numbering; also called He Ab) heavy 1: not shown heavy 2: not shown light: DIVMTQSPLSLPVTPGEPASISCQASESLVHSNRNTYLHWYLQKPGQSPQLLIYKVSNRFSGVPDRFSGSGSGTDFTLKISRVEAEDVGVYYCSQNTHVPPTFGQGTKVEIERTVAAPSVFIFPPSDEQLKSGTASVVCLLNNFYPREAKVQWKVDNALQSGNSQESVTEQDSKDSTYSLSSTLTLSKADYEKHKVYACEVTHQGLSSPVTKSFNRGEC | 1.38 ratio | 66.7 relative, control = 100 | 48.3 relative, control = 100
15 | GpH7-A5/GpH7-B3 variant P329_12R/GpL16-k0 (antibody, human IgG1, kappa, position is EU numbering; also called He Ab) heavy 1: not shown heavy 2: not shown light: DIVMTQSPLSLPVTPGEPASISCQASESLVHSNRNTYLHWYLQKPGQSPQLLIYKVSNRFSGVPDRFSGSGSGTDFTLKISRVEAEDVGVYYCSQNTHVPPTFGQGTKVEIERTVAAPSVFIFPPSDEQLKSGTASVVCLLNNFYPREAKVQWKVDNALQSGNSQESVTEQDSKDSTYSLSSTLTLSKADYEKHKVYACEVTHQGLSSPVTKSFNRGEC | 1.52 ratio | 26.7 relative, control = 100 | 17.6 relative, control = 100
